# From the Human Domainome abundance scans (Beltran et al. 2025)
# ± gives the uncertainty stated by the source.
# B1: POU domain, class 3, transcription factor 2, residues 262 to 338; numbered along this chain, P20265 (parent)
# chain: EDTPTSDDLEQFAKQFKQRRIKLGFTQADVGLALGTLYGNVFSQTTICRFEALQLSFKNMCKLKPLLNKWLEEADSS
# Variants of: B1
# Experiment: abundance fitness (aPCA) (normalised: wild type 0, dead -1); higher = more abundant; growth selection in yeast, the domain comes from the species named
# Conditions: Homo sapiens
row,Variant,abundance fitness
1,EDTPTSDDLEQFAKQFKQRRIKLGFTQADVGLALGTLYGNVFSQTTICRFEALQLSFKNMCKLKPLLNKWLEEADMS,-0.021 ± 0.045
2,EDTPTSDDLEQFAKQFKQRRHKLGFTQADVGLALGTLYGNVFSQTTICRFEALQLSFKNMCKLKPLLNKWLEEADSS,-0.267 ± 0.08
3,EDTPTSDDLEQFAKQFKQRRIKLGFTQADVGLALGTLYWNVFSQTTICRFEALQLSFKNMCKLKPLLNKWLEEADSS,-0.715 ± 0.064
4,EDTPTSDDLEQFAKQFKQRRLKLGFTQADVGLALGTLYGNVFSQTTICRFEALQLSFKNMCKLKPLLNKWLEEADSS,-0.015 ± 0.03
5,EDTPTSDDLEQFAKQFKQRRIKLGFTQADVGLALGTLYGEVFSQTTICRFEALQLSFKNMCKLKPLLNKWLEEADSS,0.108 ± 0.04
6,EDTPTSDDLEQFAKQFKQRRIKLGFTQADVGLALGTLYGNVFSQTTICRFEALQISFKNMCKLKPLLNKWLEEADSS,-0.364 ± 0.099
7,EDTPTSDDLEQFAKQFKQRRIKLGFTQADVGLALGLLYGNVFSQTTICRFEALQLSFKNMCKLKPLLNKWLEEADSS,-0.194 ± 0.037
8,EDTPTSDDLEQFAKQFKQRRIKLGFTQADVGLALGTLYGNVFSQTTICRFEALQLSFKNMCKLKPLLNKWLEEADKS,0.021 ± 0.046
9,EKTPTSDDLEQFAKQFKQRRIKLGFTQADVGLALGTLYGNVFSQTTICRFEALQLSFKNMCKLKPLLNKWLEEADSS,-0.031 ± 0.051
10,EDTPTSDDLEQFAKQFKQRRIKLGFTQADVGLALGTLYGNVFSQTTIVRFEALQLSFKNMCKLKPLLNKWLEEADSS,-0.099 ± 0.026
11,EDTPTSDDLEQFAKQFKQRRIKLGFTQADVGLALPTLYGNVFSQTTICRFEALQLSFKNMCKLKPLLNKWLEEADSS,-0.612 ± 0.071
12,EDTLTSDDLEQFAKQFKQRRIKLGFTQADVGLALGTLYGNVFSQTTICRFEALQLSFKNMCKLKPLLNKWLEEADSS,0.164 ± 0.036
13,EDTPTSDDLEQFAKQFKQRRIKLGFTQADVGLALDTLYGNVFSQTTICRFEALQLSFKNMCKLKPLLNKWLEEADSS,-0.415 ± 0.06
14,EDTPTSDDLEQFAKQFKQRRIKLGFTQSDVGLALGTLYGNVFSQTTICRFEALQLSFKNMCKLKPLLNKWLEEADSS,-0.086 ± 0.037
15,EDTPTSDDLEQFAKQFKQREIKLGFTQADVGLALGTLYGNVFSQTTICRFEALQLSFKNMCKLKPLLNKWLEEADSS,-0.712 ± 0.079
16,EDTPTSDDLEQFAKQFKQRRIKLGFTQADVGLALGTLYGNVFSQTTICRFEALQLSFKNGCKLKPLLNKWLEEADSS,-0.543 ± 0.035
17,EDTPTSDDLEQFAKQFKQRRIKLGFTQADVGLALGTLYGNVFSQTTICRFEALQLSFKNMCKLRPLLNKWLEEADSS,-0.092 ± 0.031
18,EDTPTSDDLEQFAKQFKQRRIKLGFTQADVGLALGTLYGNVFSQTTICRFEALQLSFKNMCKLKPLLNKWLEEADSR,0.054 ± 0.045

row,Variant,abundance fitness
1,EDTPTSDDLEQFAKQFKQRRIKLGFTQADVGLALGTLYGNVFSQTTICRFEALQLSFKNMFKLKPLLNKWLEEADSS,-0.274 ± 0.053
2,EFTPTSDDLEQFAKQFKQRRIKLGFTQADVGLALGTLYGNVFSQTTICRFEALQLSFKNMCKLKPLLNKWLEEADSS,-0.133 ± 0.073
3,EDTPTSDDLEQFAKQFKQRRIFLGFTQADVGLALGTLYGNVFSQTTICRFEALQLSFKNMCKLKPLLNKWLEEADSS,-0.096 ± 0.064
4,EDTPTSDDLEQFAKQFKQRRIKCGFTQADVGLALGTLYGNVFSQTTICRFEALQLSFKNMCKLKPLLNKWLEEADSS,-0.313 ± 0.053
5,EDTPTSDDLEQFAKQFKQRRIKLGFTQADVGLALGTLYGNVFSQTTICRFEALQLSFKNMCKLKPLLNKWLAEADSS,-0.017 ± 0.037
6,EDTPTSDNLEQFAKQFKQRRIKLGFTQADVGLALGTLYGNVFSQTTICRFEALQLSFKNMCKLKPLLNKWLEEADSS,0.047 ± 0.096
7,EDTPTSDDLEQFAKQFKQRRIKLGFTQADVGLALGTLYGNVFSQTTICRFEALQLSFKNMCKLKPLLNKWLEQADSS,0.159 ± 0.098
8,EDTPTSDDLEQGAKQFKQRRIKLGFTQADVGLALGTLYGNVFSQTTICRFEALQLSFKNMCKLKPLLNKWLEEADSS,-0.582 ± 0.14
9,EDTPTSDDLEQFAKQFKQRRIKLGFTQADVGLALGTLYGNVFSQTTISRFEALQLSFKNMCKLKPLLNKWLEEADSS,0.029 ± 0.033
10,EDTPTSDDLEQFAKQFEQRRIKLGFTQADVGLALGTLYGNVFSQTTICRFEALQLSFKNMCKLKPLLNKWLEEADSS,-0.39 ± 0.035
11,EDTPTSDDLEQFAKQFKQRRIKQGFTQADVGLALGTLYGNVFSQTTICRFEALQLSFKNMCKLKPLLNKWLEEADSS,-0.31 ± 0.063
12,EDTPTSDDLEQFAKQFKQRRIKLGFTQADVGLALGTLFGNVFSQTTICRFEALQLSFKNMCKLKPLLNKWLEEADSS,-0.036 ± 0.061
13,EDTPTSDDLEQFAKQFKQRRIKLGFTQADVGLALGTLYGNRFSQTTICRFEALQLSFKNMCKLKPLLNKWLEEADSS,-0.023 ± 0.033
14,EDTPTSDDLEQFAKQFKQRRIKLGFTQADVGLALGTLYGNVFSQTTICRFEALQLSFKNMCKLFPLLNKWLEEADSS,-0.264 ± 0.1
15,EDTPTSDDLEQFAKQFKQRRIKLGFTQADVGLALGTLYGNVFSQTTACRFEALQLSFKNMCKLKPLLNKWLEEADSS,-0.751 ± 0.068
16,EDTPTSDDLEQFAKQFKQRRIKLGFTQADVGLALGTLDGNVFSQTTICRFEALQLSFKNMCKLKPLLNKWLEEADSS,-0.036 ± 0.045
17,EDTPTSDDLEQFAKQFKQRRIKLGFTQADWGLALGTLYGNVFSQTTICRFEALQLSFKNMCKLKPLLNKWLEEADSS,-0.793 ± 0.14
18,EQTPTSDDLEQFAKQFKQRRIKLGFTQADVGLALGTLYGNVFSQTTICRFEALQLSFKNMCKLKPLLNKWLEEADSS,0.054 ± 0.039
